# Measured values taken from doi:10.64898/2025.12.11.693838 (bioRxiv, 2025).
# B1: Staphylococcal atypical 2-Cys peroxiredoxin / thiol peroxidase, wild type (WT-SaTpx) (enzyme, UniProt Q2FXL3 1-164, looked up)
# chain: MTEITFKGGPIHLKGQQINEGDFAPDFTVLDNDLNQVTLADYAGKKKLISVVPSIDTGVCDQQTRKFNSDASKEEGIVLTISADLPFAQKRWCASAGLDNVITLSDHRDLSFGENYGVVMEELRLLARAVFVLDADNKVVYKEIVSEGTDFPDFDAALAAYKNI
# B2: N-terminal β-flap deletion mutant of SaTpx (NΔ15-SaTpx) (domain or fragment, UniProt Q2FXL3 16-164, looked up)
# chain: QQINEGDFAPDFTVLDNDLNQVTLADYAGKKKLISVVPSIDTGVCDQQTRKFNSDASKEEGIVLTISADLPFAQKRWCASAGLDNVITLSDHRDLSFGENYGVVMEELRLLARAVFVLDADNKVVYKEIVSEGTDFPDFDAALAAYKNI
# Biological target: the molecule itself
# Assay: crystal structure
row,Protein,stoichiometry N
1,B1,2
2,B2,2
